Assay results published in paper PMC10244618.
“And” between values parts separate entries of the source, which are not always exact repeats. Identical values can stand only once.

B1: NF2 (merlin) isoform 7, human, full length (507 aa, lacks exons 2-3 = isoform-1 residues 39-121; exon-16 C-terminus), P35240-4 (parent)
chain: MAGAIASRMSFSSLKRKQPKTFTVRIVTMDAEMEFNCEVKKQILDEKIYCPPEASVLLASYAVQAKYGDYDPSVHKRGFLAQEELLPKRVINLYQMTPEMWEERITAWYAEHRGRARDEAEMEYLKIAQDLEMYGVNYFAIRNKKGTELLLGVDALGLHIYDPENRLTPKISFPWNEIRNISYSDKEFTIKPLDKKIDVFKFNSSKLRVNKLILQLCIGNHDLFMRRRKADSLEVQQMKAQAREEKARKQMERQRLAREKQMREEAERTRDELERRLLQMKEEATMANEALMRSEETADLLAEKAQITEEEAKLLAQKAAEAEQEMQRIKATAIRTEEEKRLMEQKVLEAEVLALKMAEESERRAKEADQLKQDLQEAREAERRAKQKLLEIATKPTYPPMNPIPAPLPPDIPSFNLIGDSLSFDFKDTDMKRLSMEIEKEKVEYMEKSKHLQEQLNELKTEIEALKLKERETALDILHNENSDRGGSSKHNTIKKPQAQGRRPICI

Variants of: B1
Assay: reverse yeast two-hybrid deep mutational scan (rY2H-seq): NF2 isoform 7 mutant library as bait mated with wild-type prey strains; selection on medium lacking adenine for non-interacting pairs; NextSeq paired-end sequencing; enrichment vs …
Details: with PIK3R3 (phosphatidylinositol 3-kinase regulatory subunit gamma), Q92569; yeast diploids after mating (RBait_S3 x RPrey_S3), 30 °C, selection for reporter genes on NB agar; human tyrosine kinase ABL2 co-expressed as the active kinase …; HIGHER = WEAKER BINDING (the opposite of display enrichments): higher = stronger loss of interaction: reverse Y2H selects yeast in which bait and prey do NOT interact (growth without adenine), so a …; hits-only table; scale: rY2H score; numbering: uniprot, sequence starts at 1

| enrichment | Variant |
| --- | --- |
| 2.16 | A155T |
| 2.18 | A368L |
| 2.64 | M280I |
| 35.5 | S55K |
| 2.29 | G486S |
| 2.13 | A140V |
| 2.86 | M357E |
| 1.57 | R166C |
| 4.51 | S73A |
| 1.73 | E234K |
| 2.6 | A365G |
| 2.28 | K191S |
| 2.29 | L348A |
| 1.42 | L207G |
| 2.15 | M225I |
| 2.36 | K346N |
| 1.43 | N176M |

| enrichment | Variant |
| --- | --- |
| 2.39 | D484E |
| 2.91 | E339G |
| 1.71 | S294V |
| 2.27 | S294F |
| 13.6 | E458L |
| 2.39 | V24A |
| 2.93 | A62K |
| 2.91 | M401Q |
| 7.34 | G68V |
| 1.67 | T297L |
| 1.53 | L353P |
| 5.43 | T147A |
| 1.52 | G146R |
| 2.62 | T493A |
| 2.57 | L212P |
| 6.26 | R485K |

Further lines, the variant ahead of its results:

| Variant | enrichment |
| --- | --- |
| Q498E | 1.97 |
| R89G | 1.41 |
| M133I | 2.1 |
| F173P | 13 |
| F173T | 11 |
| K388E | 3.32 |
| I171L | 1.51 |
| L14P | 3.46 |
| L149P | 2.48 |
| F415E | 1.83 |
| R166K | 2.44 |
| L216P | 3.07 |
| P396K | 4.88 |
| A287E | 2.8 |
| D71T | 11.1 |
| D194N | 1.96 |
| T336E | 3.42 |
| I141C | 1.42 |
| T394S | 1.98 |
| P52A | 1.76 |
| V63K | 2 |
| V352K | 2.67 |

Same assay, conditions: with NF2 C-terminal domain (wild type; homomeric NF2-NF2 interaction), P35240; yeast diploids after mating (RBait_S3 x RPrey_S3), 30 °C, selection for reporter genes on NB agar; human ABL2 co-expressed as the kinase-dead K35M mutant …; HIGHER = WEAKER BINDING (the opposite of display enrichments): higher = stronger loss of interaction: reverse Y2H selects yeast in which bait and prey do NOT interact (growth without adenine), so a …; hits-only table; partner unresolved; scale: rY2H score; numbering: uniprot, sequence starts at 1

| enrichment | Variant |
| --- | --- |
| 2.15 | K395S |
| 4.06 | L475K |
| 2.58 | S423L |
| 2.28 | L390A |
| 1.98 | D374A |
| 3.43 | N482A |
| 3.75 | E245K |
| 4.71 | L348A |
| 1.43 | Y70H |
| 2.55 | S483K |
| 3.08 | A266L |
| 3.13 | T297L |
| 5.78 | Q376A |
| 5.61 | E132K |

Second part, the variant before the results:

| Variant | enrichment |
| --- | --- |
| L466C | 1.55 |
| K496S | 1.44 |
| M238A | 4.02 |
| F415E | 2.37 |
| E377L | 1.63 |
| A287E | 3.57 and 6.74 |
| F139E | 20.1 |
| T336D | 3.64 |
| T394K | 1.65 |
| R293K | 7.18 |
| Q373K | 1.92 |
| N457E | 2.32 |
